In patent publication US20200157212A1 (Pfizer, published 2020):

Tests used:
[1] = target: T1, Rat ROBO2 on cells (rat, UniProt Q7TPD3 22-1469 (mouse entry)); assay: cell-based or functional assay
T1 chain: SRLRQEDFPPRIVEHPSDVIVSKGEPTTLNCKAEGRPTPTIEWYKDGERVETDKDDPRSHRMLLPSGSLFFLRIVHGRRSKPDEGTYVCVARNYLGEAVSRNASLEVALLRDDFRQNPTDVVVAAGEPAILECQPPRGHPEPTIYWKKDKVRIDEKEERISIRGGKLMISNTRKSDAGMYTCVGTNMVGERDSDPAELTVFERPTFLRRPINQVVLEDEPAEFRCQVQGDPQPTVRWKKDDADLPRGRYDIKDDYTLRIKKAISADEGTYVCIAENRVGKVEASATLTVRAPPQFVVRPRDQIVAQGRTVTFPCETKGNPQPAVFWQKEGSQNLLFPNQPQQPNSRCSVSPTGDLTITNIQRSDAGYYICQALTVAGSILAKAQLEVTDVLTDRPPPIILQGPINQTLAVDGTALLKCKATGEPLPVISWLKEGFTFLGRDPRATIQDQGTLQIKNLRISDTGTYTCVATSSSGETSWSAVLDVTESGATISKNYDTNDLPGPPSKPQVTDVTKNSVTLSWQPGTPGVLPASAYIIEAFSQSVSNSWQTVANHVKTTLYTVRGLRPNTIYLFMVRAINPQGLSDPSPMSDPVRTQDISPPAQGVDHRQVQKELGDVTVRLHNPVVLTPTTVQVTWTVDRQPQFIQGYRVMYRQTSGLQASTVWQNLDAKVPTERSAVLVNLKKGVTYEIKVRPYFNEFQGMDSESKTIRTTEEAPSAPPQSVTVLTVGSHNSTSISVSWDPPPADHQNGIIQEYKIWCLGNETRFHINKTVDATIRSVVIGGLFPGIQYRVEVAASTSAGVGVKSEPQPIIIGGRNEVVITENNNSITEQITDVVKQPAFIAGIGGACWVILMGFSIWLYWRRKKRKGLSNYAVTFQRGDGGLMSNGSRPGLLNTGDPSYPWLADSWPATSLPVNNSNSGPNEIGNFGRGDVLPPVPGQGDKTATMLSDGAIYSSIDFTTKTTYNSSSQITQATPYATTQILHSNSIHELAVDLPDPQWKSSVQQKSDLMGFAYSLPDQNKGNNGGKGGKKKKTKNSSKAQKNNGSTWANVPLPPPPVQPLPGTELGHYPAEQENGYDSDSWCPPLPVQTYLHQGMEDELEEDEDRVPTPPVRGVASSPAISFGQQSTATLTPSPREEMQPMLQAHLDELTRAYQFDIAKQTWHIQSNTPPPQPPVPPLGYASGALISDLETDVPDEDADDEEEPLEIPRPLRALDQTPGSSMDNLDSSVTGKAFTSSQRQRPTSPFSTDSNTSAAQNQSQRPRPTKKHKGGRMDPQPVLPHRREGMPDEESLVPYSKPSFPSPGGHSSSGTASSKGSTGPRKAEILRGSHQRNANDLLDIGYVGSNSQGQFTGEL

[2] = target: T2, Human ROBO1 RSK mutant overexpressed on HEK293 cells (human, UniProt Q9Y6N7 26-1651); assay: flow cytometry, Geo MFI ROBO1-RSK/ROBO2-KSR HEK293 cells, 2.5 µg/ml
T2 construct: K137R and R139K already in the entry; also called ROBO1-RSK cells
T2 sequence (Q9Y6N7 other isoform, or with tags, fused parts or gaps mutant limits assumed): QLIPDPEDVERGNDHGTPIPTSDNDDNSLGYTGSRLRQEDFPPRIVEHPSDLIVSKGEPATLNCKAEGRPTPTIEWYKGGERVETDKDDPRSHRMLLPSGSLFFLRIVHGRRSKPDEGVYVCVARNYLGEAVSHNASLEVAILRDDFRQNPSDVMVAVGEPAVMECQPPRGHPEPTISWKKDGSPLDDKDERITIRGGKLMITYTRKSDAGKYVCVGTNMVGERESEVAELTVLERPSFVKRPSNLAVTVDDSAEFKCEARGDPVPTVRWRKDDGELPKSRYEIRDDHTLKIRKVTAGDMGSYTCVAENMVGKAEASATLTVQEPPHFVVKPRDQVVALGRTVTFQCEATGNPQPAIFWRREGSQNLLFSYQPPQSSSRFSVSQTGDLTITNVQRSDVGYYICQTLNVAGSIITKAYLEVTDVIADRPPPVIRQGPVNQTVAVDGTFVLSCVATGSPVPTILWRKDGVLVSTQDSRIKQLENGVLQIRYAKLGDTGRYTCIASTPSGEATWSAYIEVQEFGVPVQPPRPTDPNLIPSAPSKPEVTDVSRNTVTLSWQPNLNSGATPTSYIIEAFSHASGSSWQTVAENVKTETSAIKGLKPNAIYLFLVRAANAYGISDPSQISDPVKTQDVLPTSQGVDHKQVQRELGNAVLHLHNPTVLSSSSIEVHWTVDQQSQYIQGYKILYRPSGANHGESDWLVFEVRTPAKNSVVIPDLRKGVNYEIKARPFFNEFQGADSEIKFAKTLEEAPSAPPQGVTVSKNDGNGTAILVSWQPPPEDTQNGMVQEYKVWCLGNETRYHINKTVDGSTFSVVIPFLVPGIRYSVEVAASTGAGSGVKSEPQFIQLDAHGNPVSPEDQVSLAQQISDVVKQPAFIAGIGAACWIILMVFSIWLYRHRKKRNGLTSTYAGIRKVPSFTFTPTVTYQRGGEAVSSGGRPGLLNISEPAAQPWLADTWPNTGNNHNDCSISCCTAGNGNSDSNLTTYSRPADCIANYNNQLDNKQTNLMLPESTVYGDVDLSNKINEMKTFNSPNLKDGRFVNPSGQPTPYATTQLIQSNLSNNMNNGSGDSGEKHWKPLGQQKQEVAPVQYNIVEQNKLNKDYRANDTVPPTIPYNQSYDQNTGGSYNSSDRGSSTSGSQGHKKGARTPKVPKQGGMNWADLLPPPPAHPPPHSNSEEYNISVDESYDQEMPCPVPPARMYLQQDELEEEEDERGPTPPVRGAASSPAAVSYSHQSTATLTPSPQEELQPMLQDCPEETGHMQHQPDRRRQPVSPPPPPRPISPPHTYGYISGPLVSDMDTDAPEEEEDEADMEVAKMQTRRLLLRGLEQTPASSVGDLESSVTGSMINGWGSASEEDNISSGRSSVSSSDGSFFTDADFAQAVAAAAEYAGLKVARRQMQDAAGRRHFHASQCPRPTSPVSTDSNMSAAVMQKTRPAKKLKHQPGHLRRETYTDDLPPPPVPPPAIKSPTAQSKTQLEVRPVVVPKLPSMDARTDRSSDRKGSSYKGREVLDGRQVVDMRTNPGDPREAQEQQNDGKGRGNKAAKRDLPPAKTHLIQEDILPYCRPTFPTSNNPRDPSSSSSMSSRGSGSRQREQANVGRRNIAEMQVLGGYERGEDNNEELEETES

B1: 93H2 (antibody, human IgG1, kappa, V domains shown)
VH: EVQLVQSGAEVKKPGASVKVSCKASGYTFTGYYMHWVRQAPGQGLEWMGWINPNSGATNFPQKFQGRVTMTRDTSITTAYMDLSRLRSDDTAVYYCARESGDDAFDIWGQGTMVTVSS
VL: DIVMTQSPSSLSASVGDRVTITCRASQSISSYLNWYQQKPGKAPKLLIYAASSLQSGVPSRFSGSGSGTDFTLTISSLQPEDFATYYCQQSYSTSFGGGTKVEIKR
notes: also called parental 93H2; 93H2 mAb
[1]
  IC50 (nM), SVZa assay: 1.69 nM

B2: CTIR2-14 (antibody, human IgG1, kappa, V domains shown)
VH: EVQLVQSGAEVKKPGASVKVSCKASGYTFRGYAMHWVRQAPGQGLEWMGWIDPRTGLTKFPQKFQGRVTMTRDTSITTAYMDLSRLRSDDTAVYYCARESGDDAFDIWGQGTMVTVSS
VL: DIVMTQSPSSLSASVGDRVTITCRASQKISSYLNWYQQKPGKAPKLLIYAASSLQYGVPSRFSGSGSGTDFTLTISSLQPEDFATYYCQQSLELGFGGGTKVEIKR
notes: CDR-shuffled IgG
[1]
  IC50 (nM), SVZa assay: 0.11 nM
[2]
  Fold Selectivity for RSK/KSR: > 100 fold

B3: CTIR2-16 (antibody, human IgG1, kappa, V domains shown)
VH: EVQLVQSGAEVKKPGASVKVSCKASGYTFRGYAMHWVRQAPGQGLEWMGWIDPRTGLTKFPQKFQGRVTMTRDTSITTAYMDLSRLRSDDTAVYYCARESGDDAFDIWGQGTMVTVSS
VL: DIVMTQSPSSLSASVGDRVTITCRASQKISSYLNWYQQKPGKAPKLLIYAASSLQYGVPSRFSGSGSGTDFTLTISSLQPEDFATYYCQQSVGLFFGGGTKVEIKR
notes: CDR-shuffled IgG
[1]
  IC50 (nM), SVZa assay: 0.41 nM
[2]
  Fold Selectivity for RSK/KSR: 66.5 fold

B4: Abcs55 (antibody, human IgG1, kappa, V domains shown)
VH: EVQLVQSGAEVKKPGASVKVSCKASGYTFTGYYMHWVRQAPGQGLEWMGWINPKDGDTEFPQKFQGRVTMTRDTSITTAYMDLSRLRSDDTAVYYCARESGDDAFDIWGQGTMVTVSS
VL: DIVMTQSPSSLSASVGDRVTITCRASQSISSYLNWYQQKPGKAPKLLIYAASSLQYGVPSRFSGSGSGTDFTLTISSLQPEDFATYYCQQSYSTSFGGGTKVEIKR
notes: chain-shuffled IgG
[1]
  IC50 (nM), SVZa assay: 0.98 nM
[2]
  Fold Selectivity for RSK/KSR: 1.5 fold

B5: Abcs35 (antibody, human IgG1, kappa)
heavy: EVQLVQSGAEVKKPGASVKVSCKASGYTFTGYYMHWVRQAPGQGLEWMGWINPKNGDTEFPQKFQGRVTMTRDTSITTAYMDLSRLRSDDTAVYYCARESGDDAFDIWGQGTMVTVSSASTKGPSVFPLAPSSKSTSGGTAALGCLVKDYFPEPVTVSWNSGALTSGVHTFPAVLQSSGLYSLSSVVTVPSSSLGTQTYICNVNHKPSNTKVDKKVEPKSCDKTHTCPPCPAPEAAGAPSVFLFPPKPKDTLMISRTPEVTCVVVDVSHEDPEVKFNWYVDGVEVHNAKTKPREEQYNSTYRVVSVLTVLHQDWLNGKEYKCKVSNKALPAPIEKTISKAKGQPREPQVYTLPPSREEMTKNQVSLTCLVKGFYPSDIAVEWESNGQPENNYKTTPPVLDSDGSFFLYSKLTVDKSRWQQGNVFSCSVMHEALHNHYTQKSLSLSPGK
light: DIVMTQSPSSLSASVGDRVTITCRASQSISSYLNWYQQKPGKAPKLLIYAASSLQSGVPSRFSGSGSGTDFTLTISSLQPEDFATYYCQQSVGLFFGGGTKVEIKRTVAAPSVFIFPPSDEQLKSGTASVVCLLNNFYPREAKVQWKVDNALQSGNSQESVTEQDSKDSTYSLSSTLTLSKADYEKHKVYACEVTHQGLSSPVTKSFNRGEC
notes: fully human IgG1; VH of Ab96 with VL of Ab123
[1]
  IC50 (nM), SVZa assay: 0.039 nM
[2]
  Fold Selectivity for RSK/KSR: 6.6 fold

B6: Abcs25 (antibody, human IgG1, kappa, V domains shown)
VH: EVQLVQSGAEVKKPGASVKVSCKASGYTFTGYYMHWVRQAPGQGLEWMGWINPKDGDTEFPQKFQGRVTMTRDTSITTAYMDLSRLRSDDTAVYYCARESGDDAFDIWGQGTMVTVSS
VL: DIVMTQSPSSLSASVGDRVTITCRASQSISSYLNWYQQKPGKAPKLLIYAASSLQSGVPSRFSGSGSGTDFTLTISSLQPEDFATYYCQQSVGLSFGGGTKVEIKR
notes: chain-shuffled IgG
[1]
  IC50 (nM), SVZa assay: 0.31 nM
[2]
  Fold Selectivity for RSK/KSR: 8.1 fold

B7: Abcs20 (antibody, human IgG1, kappa, V domains shown)
VH: EVQLVQSGAEVKKPGASVKVSCKASGYTFTGYYMHWVRQAPGQGLEWMGWINPKNGDTEFPQKFQGRVTMTRDTSITTAYMDLSRLRSDDTAVYYCARESGDDAFDIWGQGTMVTVSS
VL: DIVMTQSPSSLSASVGDRVTITCRASQSISSYLNWYQQKPGKAPKLLIYAASSLQSGVPSRFSGSGSGTDFTLTISSLQPEDFATYYCQQSVGLSFGGGTKVEIKR
notes: chain-shuffled IgG
[1]
  IC50 (nM), SVZa assay: 0.47 nM
[2]
  Fold Selectivity for RSK/KSR: 7 fold

B8: CTIR2-15 (antibody, human IgG1, kappa, V domains shown)
VH: EVQLVQSGAEVKKPGASVKVSCKASGYTFRGYAMHWVRQAPGQGLEWMGWIDPRTGLTKFPQKFQGRVTMTRDTSITTAYMDLSRLRSDDTAVYYCARESGDDAFDIWGQGTMVTVSS
VL: DIVMTQSPSSLSASVGDRVTITCRASQKISSYLNWYQQKPGKAPKLLIYAASSLQYGVPSRFSGSGSGTDFTLTISSLQPEDFATYYCQQSVGLSFGGGTKVEIKR
notes: CDR-shuffled IgG
[1]
  IC50 (nM), SVZa assay: 0.02 nM
[2]
  Fold Selectivity for RSK/KSR: > 100 fold

B9: Abcs40 (antibody, human IgG1, kappa, V domains shown)
VH: EVQLVQSGAEVKKPGASVKVSCKASGYTFTGYYMHWVRQAPGQGLEWMGWINPKDGDTEFPQKFQGRVTMTRDTSITTAYMDLSRLRSDDTAVYYCARESGDDAFDIWGQGTMVTVSS
VL: DIVMTQSPSSLSASVGDRVTITCRASQSISSYLNWYQQKPGKAPKLLIYAASSLQSGVPSRFSGSGSGTDFTLTISSLQPEDFATYYCQQSVGLFFGGGTKVEIKR
notes: chain-shuffled IgG
[1]
  IC50 (nM), SVZa assay: 0.11 nM
[2]
  Fold Selectivity for RSK/KSR: 9.3 fold
